Article PMC6855462

Target: FL H1#5070 (full-length HA of H1 A/Brisbane/59/2007, C-terminally modified with a sortase A LPXTG recognition sequence, biotinylated HA probe) (influenza A virus H1 A/Brisbane/59/2007)
Test: SEC-MALS; Superdex 200 10-300 GL column, after sortase-mediated biotinylation; trimeric fractions collected; stored in 20mM Tris, 150mM NaCl, pH7.8

FL H1#5070 (full-length HA of H1 A/Brisbane/59/2007, C-terminally modified with a sortase A LPXTG recognition sequence, biotinylated HA probe) (natural protein)
stoichiometry N: 3
